Measurements reported in patent publication US20080260755A1.
Values belong to the molecule of their own block, whether it stands above or below them.

What was measured:
[1] = target: activated FIX-albumin fusion protein with non-cleavable linker (980/797), activated by FXIa (human) (UniProt P00740); experiment: cell-based or functional assay
[2] = target: activated FIX-albumin fusion protein with cleavable linker (1088/797), activated by FXIa (human) (UniProt P00740); experiment: cell-based or functional assay
[3] = test system: FIX-albumin fusion protein with non-cleavable linker (1478/797)
[4] = test system: FIX-albumin fusion protein with cleavable linker, construct no. 1089/797
[5] = test system: FIX-albumin fusion protein with cleavable linker, construct no. 1088/797
[6] = target: FIX-albumin fusion protein with cleavable linker, construct no. 1088/797; remark: listed apart in the source
[7] = target: FIX-albumin fusion protein with cleavable linker, construct no. 1089/797; remark: listed apart in the source

- clotting time (naPTT) after 120 min incubation with AT [1]: 411 s
- clotting time (naPTT), control without incubation with AT [1]: 196 s
- clotting time (naPTT) after 120 min incubation with AT [2]: 540 s
- clotting time (naPTT), control without incubation with AT [2]: 210 s
- factor of increase in clotting time (naPTT) after 120 min incubation with AT [2]: 2.57 x
Molecule: Antithrombin III (AT) (from UniProt P01008 33-464)

Molecule: Factor XIa (FXIa)
- proteolytic cleavage in vitro, SDS-PAGE [3]: The fusion protein with non-cleavable linker did not show a corresponding release of the albumin moiety
- proteolytic cleavage in vitro, SDS-PAGE [4]: are activated and in parallel the linker is cleaved resulting in release of the albumin moiety
- proteolytic cleavage in vitro, SDS-PAGE [5]: are activated and in parallel the linker is cleaved resulting in release of the albumin moiety

B1: FVIIa (in the presence of tissue factor) (protein)
chain: ANAFLEELRPGSLERECKEEQCSFEEAREIFKDAERTKLFWISYSDGDQCASSPCQNGGSCKDQLQSYICFCLPAFEGRNCETHKDDQLICVNENGGCEQYCSDHTGTKRSCRCHEGYSLLADGVSCTPTVEYPCGKIPILEKRNASKPQGRIVGGKVCPKGECPWQVLLLVNGAQLCGGTLINTIWVVSAAHCFDKIKNWRNLIAVLGEHDLSEHDGDEQSRRVAQVIIPSTYVPGTTNHDIALLRLHQPVVLTDHVVPLCLPERTFSERTLAFVRFSLVSGWGQLLDRGATALELMVLNVPRLMTQDCLQQSRKVGDSPNITEYMFCAGYSDGSKDSCKGDSGGPHATHYRGTWYLTGIVSWGQGCATVGHFGVYTRVSQYIEWLQKLMRSEPRPGVLLRAPFP
- proteolytic cleavage in vitro in the presence of tissue factor (data not shown) [6]: also showed release of the albumin moiety in parallel to release of the FIX activation peptide
- proteolytic cleavage in vitro in the presence of tissue factor (data not shown) [7]: also showed release of the albumin moiety in parallel to release of the FIX activation peptide
